B1: Cyclin-dependent kinase 4 inhibitor C (Homo sapiens), P42773 (parent)
chain: MAEPWGNELASAAARGDLEQLTSLLQNNVNVNAQNGFGRTALQVMKLGNPEIARRLLLRGANPDLKDRTGFAVIHDAARAGFLDTLQTLLEFQADVNIEDNEGNLPLHLAAKEGHLRVVEFLVKHTASNVGHRNHKGDTACDLARLYGRNEVVSLMQANGAGGATNLQ
partner: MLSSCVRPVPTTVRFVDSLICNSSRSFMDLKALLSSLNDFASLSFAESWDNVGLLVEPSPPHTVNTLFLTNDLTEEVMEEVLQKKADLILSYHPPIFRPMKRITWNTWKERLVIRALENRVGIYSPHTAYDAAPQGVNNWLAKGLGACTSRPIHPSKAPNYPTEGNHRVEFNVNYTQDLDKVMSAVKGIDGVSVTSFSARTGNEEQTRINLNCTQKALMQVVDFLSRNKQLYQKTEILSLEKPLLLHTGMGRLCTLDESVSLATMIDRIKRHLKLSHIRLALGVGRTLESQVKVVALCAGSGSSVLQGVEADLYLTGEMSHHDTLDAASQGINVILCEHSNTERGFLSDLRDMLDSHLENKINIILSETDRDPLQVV
B2: Progranulin (Homo sapiens), P28799 (parent)
chain: MWTLVSWVALTAGLVAGTRCPDGQFCPVACCLDPGGASYSCCRPLLDKWPTTLSRHLGGPCQVDAHCSAGHSCIFTVSGTSSCCPFPEAVACGDGHHCCPRGFHCSADGRSCFQRSGNNSVGAIQCPDSQFECPDFSTCCVMVDGSWGCCPMPQASCCEDRVHCCPHGAFCDLVHTRCITPTGTHPLAKKLPAQRTNRAVALSSSVMCPDARSRCPDGSTCCELPSGKYGCCPMPNATCCSDHLHCCPQDTVCDLIQSKCLSKENATTDLLTKLPAHTVGDVKCDMEVSCPDGYTCCRLQSGAWGCCPFTQAVCCEDHIHCCPAGFTCDTQKGTCEQGPHQVPWMEKAPAHLSLPDPQALKRDVPCDNVSSCPSSDTCCQLTSGEWGCCPIPEAVCCSDHQHCCPQGYTCVAEGQCQRGSEIVAGLEKMPARRASLSHPRDIGCDQHTSCPVGQTCCPSLGGSWACCQLPHAVCCEDRQHCCPAGYTCNVKARSCEKEVVSAQPATFLARSPHVGVKDVECGEGHFCHDNQTCCRDNRQGWACCPYRQGVCCADRRHCCPAGFRCAARGTKCLRREAPRWDAPLRDPALRQLL
partner: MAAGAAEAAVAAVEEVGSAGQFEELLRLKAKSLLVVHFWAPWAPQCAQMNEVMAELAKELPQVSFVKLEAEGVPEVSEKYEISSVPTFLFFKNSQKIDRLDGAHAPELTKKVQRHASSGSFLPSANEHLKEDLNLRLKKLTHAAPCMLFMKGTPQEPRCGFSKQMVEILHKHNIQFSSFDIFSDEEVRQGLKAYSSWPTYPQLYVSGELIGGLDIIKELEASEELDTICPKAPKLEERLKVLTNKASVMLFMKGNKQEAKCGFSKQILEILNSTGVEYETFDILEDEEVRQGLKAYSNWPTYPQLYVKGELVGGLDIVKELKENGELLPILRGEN
B3: SWI/SNF-related matrix-associated actin-dependent regulator of chromatin subfamily A member 2 (Homo sapiens), P51531-1 (parent)
chain: MSTPTDPGAMPHPGPSPGPGPSPGPILGPSPGPGPSPGSVHSMMGPSPGPPSVSHPMPTMGSTDFPQEGMHQMHKPIDGIHDKGIVEDIHCGSMKGTGMRPPHPGMGPPQSPMDQHSQGYMSPHPSPLGAPEHVSSPMSGGGPTPPQMPPSQPGALIPGDPQAMSQPNRGPSPFSPVQLHQLRAQILAYKMLARGQPLPETLQLAVQGKRTLPGLQQQQQQQQQQQQQQQQQQQQQQQPQQQPPQPQTQQQQQPALVNYNRPSGPGPELSGPSTPQKLPVPAPGGRPSPAPPAAAQPPAAAVPGPSVPQPAPGQPSPVLQLQQKQSRISPIQKPQGLDPVEILQEREYRLQARIAHRIQELENLPGSLPPDLRTKATVELKALRLLNFQRQLRQEVVACMRRDTTLETALNSKAYKRSKRQTLREARMTEKLEKQQKIEQERKRRQKHQEYLNSILQHAKDFKEYHRSVAGKIQKLSKAVATWHANTEREQKKETERIEKERMRRLMAEDEEGYRKLIDQKKDRRLAYLLQQTDEYVANLTNLVWEHKQAQAAKEKKKRRRRKKKAEENAEGGESALGPDGEPIDESSQMSDLPVKVTHTETGKVLFGPEAPKASQLDAWLEMNPGYEVAPRSDSEESDSDYEEEDEEEESSRQETEEKILLDPNSEEVSEKDAKQIIETAKQDVDDEYSMQYSARGSQSYYTVAHAISERVEKQSALLINGTLKHYQLQGLEWMVSLYNNNLNGILADEMGLGKTIQTIALITYLMEHKRLNGPYLIIVPLSTLSNWTYEFDKWAPSVVKISYKGTPAMRRSLVPQLRSGKFNVLLTTYEYIIKDKHILAKIRWKYMIVDEGHRMKNHHCKLTQVLNTHYVAPRRILLTGTPLQNKLPELWALLNFLLPTIFKSCSTFEQWFNAPFAMTGERVDLNEEETILIIRRLHKVLRPFLLRRLKKEVESQLPEKVEYVIKCDMSALQKILYRHMQAKGILLTDGSEKDKKGKGGAKTLMNTIMQLRKICNHPYMFQHIEESFAEHLGYSNGVINGAELYRASGKFELLDRILPKLRATNHRVLLFCQMTSLMTIMEDYFAFRNFLYLRLDGTTKSEDRAALLKKFNEPGSQYFIFLLSTRAGGLGLNLQAADTVVIFDSDWNPHQDLQAQDRAHRIGQQNEVRVLRLCTVNSVEEKILAAAKYKLNVDQKVIQAGMFDQKSSSHERRAFLQAILEHEEENEEEDEVPDDETLNQMIARREEEFDLFMRMDMDRRREDARNPKRKPRLMEEDELPSWIIKDDAEVERLTCEEEEEKIFGRGSRQRRDVDYSDALTEKQWLRAIEDGNLEEMEEEVRLKKRKRRRNVDKDPAKEDVEKAKKRRGRPPAEKLSPNPPKLTKQMNAIIDTVINYKDRCNVEKVPSNSQLEIEGNSSGRQLSEVFIQLPSRKELPEYYELIRKPVDFKKIKERIRNHKYRSLGDLEKDVMLLCHNAQTFNLEGSQIYEDSIVLQSVFKSARQKIAKEEESEDESNEEEEEEDEEESESEAKSVKVKIKLNKKDDKGRDKGKGKKRPNRGKAKPVVSDFDSDEEQDEREQSEGSGTDDE
B4: Dolichol-phosphate mannosyltransferase subunit 1 (Homo sapiens), O60762 (parent)
chain: MASLEVSRSPRRSRRELEVRSPRQNKYSVLLPTYNERENLPLIVWLLVKSFSESGINYEIIIIDDGSPDGTRDVAEQLEKIYGSDRILLRPREKKLGLGTAYIHGMKHATGNYIIIMDADLSHHPKFIPEFIRKQKEGNFDIVSGTRYKGNGGVYGWDLKRKIISRGANFLTQILLRPGASDLTGSFRLYRKEVLEKLIEKCVSKGYVFQMEMIVRARQLNYTIGEVPISFVDRVYGESKLGGNEIVSFLKGLLTLFATT
B5: Acetylcholine receptor subunit gamma (Homo sapiens), P07510-2 (parent)
chain: MHGGQGPLLLLLLLAVCLGAQGRNQEERLLADLMQNYDPNLRPAERDSDVVNVSLKLTLTNLISLNEREEALTTNVWIEMQWCDYRLRWDPRDYEGLWVLRVPSTMVWRPDIVLENKSQTYSTNEIDLQLSQEDGQTIEWIFIDPEAFTENGEWAIQHRPAKMLLDPAAPAQEAGHQKVVFYLLIQRKPLFYVINIIAPCVLISSVAILIHFLPAKAGGQKCTVAINVLLAQTVFLFLVAKKVPETSQAVPLISKYLTFLLVVTILIVVNAVVVLNVSLRSPHTHSMARGVRKVFLRLLPQLLRMHVRPLAPAAVQDTQSRLQNGSSGWSITTGEEVALCLPRSELLFQQWQRQGLVAAALEKLEKGPELGLSQFCGSLKQAAPAIQACVEACNLIACARHQQSHFDNGNEEWFLVGRVLDRVCFLAMLSLFICGTAGIFLMAHYNRVPALPFPGDPRPYLPSPD
partner: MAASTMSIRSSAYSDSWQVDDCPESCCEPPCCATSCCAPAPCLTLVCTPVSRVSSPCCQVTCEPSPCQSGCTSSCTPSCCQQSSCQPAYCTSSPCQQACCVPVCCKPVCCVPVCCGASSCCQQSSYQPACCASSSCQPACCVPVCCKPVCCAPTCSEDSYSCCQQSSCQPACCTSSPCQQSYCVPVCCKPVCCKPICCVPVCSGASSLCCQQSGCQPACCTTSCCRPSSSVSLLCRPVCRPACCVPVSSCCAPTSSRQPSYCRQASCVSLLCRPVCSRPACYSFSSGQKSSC

Variants of: B1
Conditions: with nif3l_human NIF3L1, Q9GZT8

effect of a mutation on the interaction | Variant
disrupting interaction strength | V31L

Variants of: B2
Conditions: with glrx3_human GLRX3, O76003

Variant | effect of a mutation on the interaction
P248L | with no effect
A9D | disrupting interaction strength

Results, then the variant that gave them:

effect of a mutation on the interaction | Variant
disrupting interaction strength | P451L
disrupting interaction strength | R432C

Variants of: B3
Conditions: with sdcb1_human SDCBP

effect of a mutation on the interaction | Variant
with no effect | D1546E

Variants of: B3
Conditions: with sdcb1_human SDCBP
Remark: another data set of the same source

effect of a mutation on the interaction | Variant
with no effect | D1546E

Variants of: B4
Conditions: with t23o_human TDO2, P48775
t23o_human TDO2, P48775, sequence (P48775 whole entry, looked up): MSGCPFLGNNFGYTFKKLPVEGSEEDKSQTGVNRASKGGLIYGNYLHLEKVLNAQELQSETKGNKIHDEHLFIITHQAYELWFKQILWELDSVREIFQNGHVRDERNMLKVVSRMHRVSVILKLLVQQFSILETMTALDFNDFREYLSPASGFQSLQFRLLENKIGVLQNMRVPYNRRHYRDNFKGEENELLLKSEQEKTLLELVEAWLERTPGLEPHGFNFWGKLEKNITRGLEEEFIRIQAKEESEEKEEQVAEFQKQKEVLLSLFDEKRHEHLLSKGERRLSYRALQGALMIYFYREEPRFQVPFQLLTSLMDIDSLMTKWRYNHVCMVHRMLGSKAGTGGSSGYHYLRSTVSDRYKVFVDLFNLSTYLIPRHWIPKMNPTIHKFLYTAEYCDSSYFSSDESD

effect of a mutation on the interaction | Variant
with no effect | R92G
with no effect | S248P

Variants of: B5
Conditions: with kr109_human KRTAP10-9, P60411

effect of a mutation on the interaction | Variant
disrupting interaction strength | R187C

— IntAct's records for PubMed 25910212
